Experiments:
Experiment in all cases: flow cytometry, biotinylated IL-17C (1 ug/ml) + streptavidin-PE on stably transfected BHK cells
[1] = target: T1, human ZcytoR21x6 (human, UniProt Q8NFR9 24-667)
T1 construct: also called hcytor21x6
T1 sequence: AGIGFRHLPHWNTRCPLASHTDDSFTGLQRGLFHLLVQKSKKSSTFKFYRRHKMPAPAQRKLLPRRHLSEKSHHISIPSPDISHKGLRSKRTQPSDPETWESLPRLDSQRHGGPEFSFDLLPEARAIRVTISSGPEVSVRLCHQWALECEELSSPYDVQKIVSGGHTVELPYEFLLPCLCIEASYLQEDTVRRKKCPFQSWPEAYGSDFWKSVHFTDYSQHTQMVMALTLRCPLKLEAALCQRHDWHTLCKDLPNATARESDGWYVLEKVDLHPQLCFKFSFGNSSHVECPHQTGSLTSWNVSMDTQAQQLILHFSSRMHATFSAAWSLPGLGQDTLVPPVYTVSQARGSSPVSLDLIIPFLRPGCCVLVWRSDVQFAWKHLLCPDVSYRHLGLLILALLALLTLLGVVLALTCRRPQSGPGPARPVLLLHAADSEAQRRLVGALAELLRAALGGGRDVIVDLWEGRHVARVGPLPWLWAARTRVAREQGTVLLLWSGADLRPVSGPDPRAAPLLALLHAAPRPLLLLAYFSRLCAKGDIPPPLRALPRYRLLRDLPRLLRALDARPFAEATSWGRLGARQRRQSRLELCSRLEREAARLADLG
Experimental: (§1) BHK cells stably transfected with human and mouse ZcytoR21 splice variants were plated and grown to confluency in T-75 flasks. Cells were lifted off using a non-protease reagent such as Versene (Invitrogen 15040-066), pelleted, and resuspended in a staining reagent (HBSS+1% BSA+0.1% NaAzide+10 mM HEPES) at 2×10e7 cells/ml and aliquoted to a 96-well Costar plate. IL-17C that has been labeled with biotin was independently added to cells at a concentration of 1 ug/ml. The cell/ligand mixture can be incubated for 1 hr at 4 degrees. The wells were washed 1× in staining reagent, and incubated in a secondary reagent containing staining reagent plus Streptavidin-PE (BD Pharmingen 554061) at a 1:100 ratio. The wells were incubated at 4° C. in the dark for 1 hr, followed by a 2× wash in staining media. The cells were then resuspended in a 1:1 mixture of staining media and Cytofix (BD Bioscience 554655) and incubated 10 minutes at RT. The cells were analysed by Flow Cytometry and by gating on the PE positive events for cells that bound IL-17C.

[2] = target: T2, human ZcytoR21x13 (human, UniProt Q8NFR9 24-667)
T2 construct: also called hcytor21x13
T2 sequence: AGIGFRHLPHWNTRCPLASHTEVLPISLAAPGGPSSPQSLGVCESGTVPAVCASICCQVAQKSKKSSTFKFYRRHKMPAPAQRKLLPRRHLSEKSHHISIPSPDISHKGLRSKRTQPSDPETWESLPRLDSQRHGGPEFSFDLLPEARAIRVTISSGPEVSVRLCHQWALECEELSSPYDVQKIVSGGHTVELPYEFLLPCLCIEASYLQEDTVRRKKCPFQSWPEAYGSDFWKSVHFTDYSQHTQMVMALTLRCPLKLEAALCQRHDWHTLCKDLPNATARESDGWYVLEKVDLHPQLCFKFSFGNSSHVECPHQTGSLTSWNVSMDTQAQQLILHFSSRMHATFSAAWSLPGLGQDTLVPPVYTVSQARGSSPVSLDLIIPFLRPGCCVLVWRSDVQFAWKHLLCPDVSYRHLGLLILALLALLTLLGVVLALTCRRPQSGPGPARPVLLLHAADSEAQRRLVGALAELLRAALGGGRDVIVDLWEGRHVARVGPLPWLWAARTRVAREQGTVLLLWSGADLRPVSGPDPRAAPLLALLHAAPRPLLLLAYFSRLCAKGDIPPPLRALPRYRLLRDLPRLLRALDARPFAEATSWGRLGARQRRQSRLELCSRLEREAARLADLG
Experimental: as §1

[3] = target: T3, murine ZcytoR21x6 (mouse, UniProt Q8BH06 24-637)
T3 construct: also called mouse ZcytoR21x6; mcytor21x6
T3 sequence: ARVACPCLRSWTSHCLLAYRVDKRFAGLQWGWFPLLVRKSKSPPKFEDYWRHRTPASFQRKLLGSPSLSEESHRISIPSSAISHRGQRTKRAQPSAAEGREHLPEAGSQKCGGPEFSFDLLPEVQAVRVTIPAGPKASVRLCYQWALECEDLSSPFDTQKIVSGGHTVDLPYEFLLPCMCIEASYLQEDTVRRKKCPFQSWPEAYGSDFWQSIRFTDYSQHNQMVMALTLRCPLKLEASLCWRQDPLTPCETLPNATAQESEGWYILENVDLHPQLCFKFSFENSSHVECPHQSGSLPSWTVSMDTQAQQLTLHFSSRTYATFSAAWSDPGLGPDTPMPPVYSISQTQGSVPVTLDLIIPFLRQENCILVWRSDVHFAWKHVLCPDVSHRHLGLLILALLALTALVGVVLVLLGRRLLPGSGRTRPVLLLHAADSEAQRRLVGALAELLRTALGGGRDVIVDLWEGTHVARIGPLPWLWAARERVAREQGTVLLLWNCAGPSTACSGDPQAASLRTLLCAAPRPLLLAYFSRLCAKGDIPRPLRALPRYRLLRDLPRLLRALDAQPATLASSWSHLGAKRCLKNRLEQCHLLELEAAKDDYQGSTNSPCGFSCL
Experimental: as §1

binding result [1]: binds
binding result [2]: binds
binding result [3]: binds
B1: human IL-17C (ligand)
chain: HHDPSLRGHPHSHGTPHCYSAEELPLGQAPPHLLARGAKWGQALPVALVSSLEAASHRGRHERPSATTQCPVLRPEEVLEADTHQRSISPWRYRVDTDEDRYPQKLAFAECLCRGCIDARTGRETAALNSVRLLQSLLVLRRRPCSRDGSGLPTPGAFAFHTEFIHVPVGCTCVLPRSV
modifications: biotin label in the binding assays (sites not given); unlabelled in the signalling assays
notes: it is the last residue of the open reading frame as I know it; Recombinant forms made carried a C-terminal Glu-Glu tag (BHK) or His tag (293F); also called biotinylated human IL-17C; human IL-17C (A903G)

From US20060142192A1 (ZymoGenetics, published 2006)
